{"source": "patent US20150351390A1", "about": "“COMPOSITIONS AND METHODS FOR AUXIN-ANALOG CONJUGATION” (PIONEER HI-BRED INTERNATIONAL, INC., priority 2012, published 2015)", "molecules": {"B1": {"name": "Br040812: GH3 protein, Bra040812 (protein, listed as Brassica rapa)", "chain": "MSSIVELSSLEELTLNAEQIQDDLLEKILRLNSNTEYLRRFLHGSNDKELFKKNVPLANYEDVKPYIERVANGEPSDLISGGPVTRFFRSSGTSGGKQKIFPVNDEAIEQLGYVLALRSLVMSKHFSDNGVEQGKTMEFHYTKPESTTPSGLPVAAAFTSFFKSDYFKNRPSKSQYTSPDQVILCPDNKQSLYCHLLCGLSQRDEVVRFGATFAHALVRAIDFLESNWKELCGNIRLGHVSEWITDLGCRSSVSAIIGGPNPELADLIEQECSHKSWEGIVTRLWPKAKRIECVLTGQMAQYIPILDFYCNKLPLVSTVYGSSESIFGFNVDPLCKPQDVSYTFVPNTSYFEFLPVDHEGDMTSIVDLVNVKLGCYYEPVVTTCFGLNRYLIGDILEVTGFYNNTPQFRFVRRKNMVLSVETETTTEDDILKALARATFVLESSNLMLMDFTSSADISTFPGHYVFYWELKGKEVNDVLVLDEKTLMGCCYVLEESFGSTYRLKRRTGLIGALEIRVVEQGTFNSLTDYFISRGSSRAQYKTPLCINSSEASAVLENKVLARFHSEKSPPLDL"}, "B2": {"name": "Br031718: GH3 protein, Bra031718 (protein, listed as Brassica rapa)", "chain": "MSLGCDLSVLEELTSNAKQIQDDVLTKILKANTNTEYLSRFLEGSSEKELFKKNVPVVSYEDVKPYIDRVANGEPSDILSGKPITAFFRSTGTSSGEKKIFPANDNFEDILLGLALSSLVMSKHVDGYKQGKVMIFKFIQPISTTPCGLPLAPSITIIMKSKCYRSPGKRSTTPDEIIMCTDPKQSMYCQLLCGLVQRDEVVSVGALFASVLVQIIRFLEKYWKELCSNIRSGHVSDWITDHCCRDSVSTILGEPNPELADLIENECGQESWQGIVSRLWPKTKCVETIVTGIMAQYIPALEFYSDKLPIVSSIYGSSETFFGLNVNPLCKPQHVSYTFLPNMSYFEFIHVDADGEATGEIVDLVDVKSGGYYEPLVTNYSGLYRCRVGDVLHVTGFYNNAPQFRFVRRKNTVLSIFVESTTEEDVLKALDRATVVLESSDLMLTGFTCFGDVSTVPGHYVFYLELKAKVNNDTNVLLLDEKVLVEYCCVMEESLSSFYRSLRRKDGPIGPLEVRVVQQGTFDSLMEFFVSRGASITQYKTPICINSVEASRVLEDKVLARFFSDKSPTI"}, "B3": {"name": "Sm87623: GH3 protein, Selmo1|87623 (protein, listed as Selaginella moellendorffii)", "chain": "MDATAILSAIACDEQALGFMEHVTRHVSSVQDYVLQLLLEANAGTDYFQRHGLYGIPTKEEFRRLLPITTYSDMEADFQRLANGDESKTICAARVLEMLTSSGTSGGKQKLFPKSPSYDQEFVALNRVARAALNKKAPYASRGKSLQFFYVRKPGITSGGVTTTSGLSGYFTSPAFRQRKLDPESGYTSPDQVILCVDYQQASYCHLLCGLTQSQEVVSIGAPFASTLVRSLKALKDLWQELCVDIETGRVNDNIVSDLSVKHAVNALLKPDPKLAALVRRECSKSNWRGIVRRLWPRARIIQAIVTGSMQQYVPAIDFFSDGLPIASSIYAASECSTLGVNLSPVCSPYDVRYSPFPCFVYYEFLPVSSSSSSSPRRDDLVQLAEVELGREYELVITTRAGLYRYRVGDVLKVVGFKNSMPQFSFVGRAGVLLSVDTDKTDEVELHTAVTTAAAVMAKRNRGDVRLLDYTSRVNLSSQPGHYVVYWELSLDAAMESLEAELRECCSVMEESLSVVYRRNRREGSVGALEIKVVEPGTFDRIVDHVVFVGQGSIGQYKTPRCARDPAVLRILESSVVESSRAR"}, "B4": {"name": "Br029173: GH3 protein, Bra029173 (protein, listed as Brassica rapa)", "chain": "MSMWADLSDKLDEKVLEDLTSNVKQMQDDVLKEILTLNANTEYLRPFLHGSSDKELFKKNVPVTTYDDVKLFIDRVANGEPFDVISGKPVTGFSLSSGTSGGKRKMFPCNKKYLENLNFIYCYRSLVISKHFDGLEHGKGMVFNFCVPEQTTPSGLPVSAATTLFFKSDYFKNRPSYWHWSFTSPDEVILCLDNKQSLYCHLLCGIVLRDEVVKVGTAFVSTLLRVITFLEKHWKEICTNIRYGHLSEWITDISCRDSVSKILGEPNPELADLIENECNQKSWEGIIQRLWPKTKFIESIATGQMAQHIPTLEFYSNKLPLISSSYVSSETMFGININPLCKPQDVSYTFMPHFSYFEFLLVDAGDEVEIVDLVDVKLGCHYETLVTNHSGLHRYKMGDIVQVTGFYNNAPQFRFARRGNLVLSVHMEITTDQALLNAVTHAKMVLESSNLMLMDFTGYADISTTPGHYVLYWELKGKYSNDIAKIDDKVLVECCYVVEESLDNFYKEYRKNGSIGALEIRVVQQGTFDSLMEFFISQGASSTQYKTPICIKSTEAIAILERKVRARFFTDKSLSLKFSS"}, "B5": {"name": "Sm85812: GH3 protein, Selmo1|85812 (protein, listed as Selaginella moellendorffii)", "chain": "MHSICLKSMEHATKNAAVIQRELLQQILEKNAGTEYLTRHGLDEESNLVDGFHKLPLVEYNDIEADIKRIADGDTGRILCSDPISQFFISSGTTTGRSKLIPVTKEANSRFFRPPLISPAWHRVFTINPDETYLAFWFASKQSLTKGGFKAETVTTSGLNSAHFKRAAASFVTPHKIFQSTSMYQCLYCHLLCGLLRREEVTVVISAFAFALTEAFRVLEQVWSELLEDIEAGSLSSRITDPILRLAMSGIAPPSPELAEQLRREFRSFSMDGIVQRLWPNAKSVVAVTTGAMAPYAPRLRALAGKTPLVCGNYFSSECLIGINLSPASSPATFTVNPEFAYFEFLSYHDGETKLNGLEEQRPVGLTEVTIGEKYEIVVTTRSGLYRYRLGDVVQVAGFFNSSPSLRFLFRRNVVMSVATDKTDEFELQAVVHKASLLLRSSSQLHDFAGYADFSSIPGHYAIFWELNHGGSMDPSTLQDCCELLDVSLNDPYLRGRSSGAIGPLKLCVVRGGSFRELFEQHVARGGSGSQYKSCRCVASKQAIDLLRRNTLQQALSSKFPNPWKLSIKSLELDQ"}, "B6": {"name": "Sm93250: GH3 protein, Selmo1|93250 (protein, listed as Selaginella moellendorffii)", "chain": "MDPALFRDDIESKTKDAAAVQANLLSQMMELNGETEYLRRYGGRFDSLPIIEYHDVADEVQRIANGDTSPILTAEPVVRFFKSSGTVTGEPKLIPATSKSLELLFRRPVYMMESDVCLGFLFAKPENKSPGGLPVSTTSSMFFKVQGENLEKMFTSPMKLLLAPDINQSLYCQLLCGLIRSEDVTQVFAALAITLVEALRLLEEAWSELADDVQTGTLNSKITDPTLRSSLSLCLRPNLKLAQSIRKECTADNAWCGIVERLWPKTKVIVTITTGGMAPYAPAVRKYGGSVPIVSGDYVCTECVLGFNLDPFCPPESVSFTIHPEYAYYEFLHYPQKLTDGSTVKLVDVKVGEEYELVVSTWSGLYRYKVGDIVRVTGFHNFSPNISFVHRLNAELDIAGERSTEAELQVAVQKSQHCLPASQELVDFTCHQDGQRYLIFWEIKNGDSLNPMILETCCCVLDTSLTERYKQRRENGLIGPLRLCIVRGKTFKALQQYSLEKGINPTQYKTPRCITSPEMIAILQAGITQDCQTPA"}}, "data": [{"assay": "LC-MS assay of GH3 conjugation of IAA with Asp or Glu", "assay_type": "biochemical", "conditions": "LC-MS; IAA with Asp", "method_in_brief": "(§1)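 Amino acid conjugates of IAA, 2,4-D or dicamba measured by LC-MS against conjugate standards, with kinetic parameters fitted to Michaelis-Menten initial velocities. Reactions: 5 mM each of auxin, ATP and Asp or Glu with 44 to 164 μg/mL purified His-tagged GH3 (E. coli-expressed), pH 8.0 Tris, 5 mM MgCl2, 1 mM DTT, 30 °C for 3 h.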", "values": [{"molecule": "B1", "Detected auxin conjugates: IAA-Asp": "Yes"}, {"molecule": "B2", "Detected auxin conjugates: IAA-Asp": "No"}, {"molecule": "B3", "Detected auxin conjugates: IAA-Asp": "Yes"}, {"molecule": "B4", "Detected auxin conjugates: IAA-Asp": "Yes"}, {"molecule": "B5", "Detected auxin conjugates: IAA-Asp": "Yes"}, {"molecule": "B6", "Detected auxin conjugates: IAA-Asp": "Yes"}]}, {"assay": "LC-MS assay of GH3 conjugation of IAA with Asp or Glu", "assay_type": "biochemical", "conditions": "LC-MS; IAA with Glu", "method_in_brief": "as §1", "values": [{"molecule": "B1", "Detected auxin conjugates: IAA-Glu": "Yes"}, {"molecule": "B2", "Detected auxin conjugates: IAA-Glu": "No"}, {"molecule": "B3", "Detected auxin conjugates: IAA-Glu": "No"}, {"molecule": "B4", "Detected auxin conjugates: IAA-Glu": "Yes"}, {"molecule": "B5", "Detected auxin conjugates: IAA-Glu": "No"}, {"molecule": "B6", "Detected auxin conjugates: IAA-Glu": "No"}]}, {"assay": "LC-MS assay of GH3 conjugation of 2,4-D with Asp or Glu", "assay_type": "biochemical", "conditions": "LC-MS; 2,4-D with Asp", "method_in_brief": "as §1", "values": [{"molecule": "B1", "Detected auxin conjugates: 2,4-D-Asp": "Yes"}, {"molecule": "B2", "Detected auxin conjugates: 2,4-D-Asp": "No"}, {"molecule": "B3", "Detected auxin conjugates: 2,4-D-Asp": "Yes"}, {"molecule": "B4", "Detected auxin conjugates: 2,4-D-Asp": "Yes"}, {"molecule": "B5", "Detected auxin conjugates: 2,4-D-Asp": "No"}, {"molecule": "B6", "Detected auxin conjugates: 2,4-D-Asp": "No"}]}, {"assay": "LC-MS assay of GH3 conjugation of 2,4-D with Asp or Glu", "assay_type": "biochemical", "conditions": "LC-MS; 2,4-D with Glu", "method_in_brief": "as §1", "values": [{"molecule": "B1", "Detected auxin conjugates: 2,4-D-Glu": "Yes"}, {"molecule": "B2", "Detected auxin conjugates: 2,4-D-Glu": "No"}, {"molecule": "B3", "Detected auxin conjugates: 2,4-D-Glu": "No"}, {"molecule": "B4", "Detected auxin conjugates: 2,4-D-Glu": "Yes"}, {"molecule": "B5", "Detected auxin conjugates: 2,4-D-Glu": "No"}, {"molecule": "B6", "Detected auxin conjugates: 2,4-D-Glu": "No"}]}, {"assay": "LC-MS assay of GH3 conjugation of dicamba with Asp or Glu", "assay_type": "biochemical", "conditions": "LC-MS; dicamba with Asp", "method_in_brief": "(§2)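 GH3 superfamily homologs, found by Blast searches of public databases using AtGH3.17 (Q9FZ87), were synthesized with E. coli-optimized codons and an N-terminal his-tag, expressed in OverExpress C41(DE3) cells after 0.2 mM IPTG induction at 16° C., and Ni-NTA purified. Conjugation of dicamba with Asp or Glu was measured by LC-MS using conjugate standards.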", "values": [{"molecule": "B1", "Detected auxin conjugates: Dicamba-Asp": "No"}, {"molecule": "B2", "Detected auxin conjugates: Dicamba-Asp": "No"}, {"molecule": "B3", "Detected auxin conjugates: Dicamba-Asp": "No"}, {"molecule": "B4", "Detected auxin conjugates: Dicamba-Asp": "No"}, {"molecule": "B5", "Detected auxin conjugates: Dicamba-Asp": "No"}, {"molecule": "B6", "Detected auxin conjugates: Dicamba-Asp": "No"}]}, {"assay": "LC-MS assay of GH3 conjugation of dicamba with Asp or Glu", "assay_type": "biochemical", "conditions": "LC-MS; dicamba with Glu", "method_in_brief": "as §2", "values": [{"molecule": "B1", "Detected auxin conjugates: Dicamba-Glu": "No"}, {"molecule": "B2", "Detected auxin conjugates: Dicamba-Glu": "No"}, {"molecule": "B3", "Detected auxin conjugates: Dicamba-Glu": "No"}, {"molecule": "B4", "Detected auxin conjugates: Dicamba-Glu": "No"}, {"molecule": "B5", "Detected auxin conjugates: Dicamba-Glu": "No"}, {"molecule": "B6", "Detected auxin conjugates: Dicamba-Glu": "No"}]}]}
